Among the data in US20180016348A1 are IC50 of virus neutralization (VNA on MDCK cells), EC50 of neuraminidase inhibition (NA-XTD assay, whole virus) and IC50 of virus neutralization (VNA on MDCK cells; one experiment) values, retold here.

Holding throughout (experiment): cell-based or functional assay
For test [1], the target named is neuraminidase (NA) of H5N1 A/Vietnam/1194/2004 (NIBRG-14) (influenza A virus H5N1 A/Vietnam/1194/2004 (NIBRG-14)).
Test [2] deals with neuraminidase (NA) of H1N1 A/Brisbane/59/2007 (influenza A virus H1N1 A/Brisbane/59/2007).
For test [3], the target named is neuraminidase (NA) of H3N2 A/Perth/16/2009 (influenza A virus H3N2 A/Perth/16/2009).
For test [4], the target named is neuraminidase (NA) of H1N1 A/California/07/2009 (influenza A virus H1N1 A/California/07/2009).

B1: CR12042 (antibody, V domains shown)
VH: EVQLVESGAEVRKPGSSVKVSCTASGDTFSSYTITWVRQAPGQGLEWMGEIIPIFGTANYAQKFQGRVTLTADESTTTAYMDLSSLRSEDTAVYYCARGPDNHSDRYFYYGMDVWGQGTTVTVSS
VL: EIVLTQSPLSLPVTPGEPASISCRSSQSLLHSTGNNYLDWYLQKPGQSPQLLIYLGSNRASGVPDRFSGSGSGTDFTLKISRVEAEDVGVYYCMQALQTPRTFGQGTKVDIK
For B1, the IC50 of virus neutralization (VNA on MDCK cells) in test [1] was 5.45 µg/mL; in test [4] it was 0.26 µg/mL. In addition, the EC50 of neuraminidase inhibition (NA-XTD assay, whole virus) came out at 0.11 µg/mL in test [2] and 5.01 µg/mL in test [3]. Further, the IC50 of virus neutralization (VNA on MDCK cells; one experiment) in test [3] was > 100 µg/mL.
